The supplement of paper PMC9732359
± gives the uncertainty stated by the source.

Assay: protein stability index of a GFP-peptide fusion (yeast GPS) (PSI 1-4); higher = more stable; sorted into four equal gates, so the index is relative within each strain
Method in brief: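 Plasmids in a pooled yeast library fused tiled 17-residue yeast protein peptides downstream of GFP and also expressed Cherry. Mid-log cultures grown without leucine were sorted into four equal gates by GFP/Cherry fluorescence ratio. Each gate's plasmids were PCR-amplified and Illumina-sequenced, and reads were matched to strains by barcodes. The protein stability index is derived by multiplying each gate's read frequency by its gate number and summing the results.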

Row | Sequence | protein stability index (doa10∆) | protein stability index (pdr5∆) | protein stability index (san1∆) | protein stability index (ubr1∆)
1 | FLDGIYVSHKGFITEDL [RPL9A] | 2.38 ± 0.081 | 2.62 ± 0.063 | 2.43 ± 0.1 | 3.29 ± 0.07
2 | VVNDLVGEKLVVVVLEE [SIR3] | 3.42 ± 0.076 | 3.18 ± 0.067 | 3.42 ± 0.042 | 3.53 ± 0.081
3 | MILNYNPSQGVSNSGAQ [UBP6] | 3.25 ± 0.096 | 3.37 ± 0.086 | 3.14 ± 0.064 | 3.25 ± 0.055
4 | DIGSDPTLPRSDRECPK [RPB9] | 2.7 ± 0.069 | 2.94 ± 0.078 | 2.85 ± 0.076 | 3.14 ± 0.082
5 | SKIIVFPRDGKAPEAEQ [RPL13B] | 3.15 ± 0.085 | 3.2 ± 0.08 | 3.18 ± 0.058 | 3.33 ± 0.052
6 | DSSYQDIFAVNLEESSK [RET1] | – | 2.09 ± 0.25 | 2.29 ± 0.26 | –
7 | SMLFKTSQKMTSTVNRL [MCD1] | 2.22 ± 0.073 | 2.77 ± 0.15 | 2.33 ± 0.14 | 3.04 ± 0.14
8 | SLTQSVCDLALRFGEGA [PUP2] | 2.66 ± 0.19 | 3.34 ± 0.21 | – | 3.11 ± 0.21
9 | PKEPRLKSQMDTSKALL [SKI6] | – | 3.17 ± 0.18 | – | –
10 | DEQDDDNVNSTTGSIFE [BRN1] | 2.88 ± 0.16 | 2.92 ± 0.13 | 2.7 ± 0.15 | 2.85 ± 0.066
11 | EIRAKEYKTSSDSLGPD [SRB2] | 2.81 ± 0.087 | 2.87 ± 0.058 | 3.04 ± 0.053 | 2.98 ± 0.06
12 | AQNQGMFGAKPAGTSLF [YGL172W/NUP49] | 2.32 ± 0.054 | 2.36 ± 0.064 | 2.34 ± 0.075 | 2.37 ± 0.04
13 | ETSCDNYHPMNIDETSD [SMC4] | 3.02 ± 0.064 | 3.16 ± 0.052 | 3.15 ± 0.041 | 3.17 ± 0.051
14 | IAAYIRRHRNPDLQFIV [SMC1] | 1.16 ± 0.048 | 1.21 ± 0.047 | 1.2 ± 0.079 | 1.07 ± 0.04
15 | SLNTKKNEKLILEESLN [SMC3] | 2.18 ± 0.064 | 2 ± 0.074 | 2.59 ± 0.15 | 2.6 ± 0.078
16 | SAKMILLSDPTITIKSY [PRP8] | 2.23 ± 0.078 | 1.91 ± 0.09 | 3.1 ± 0.099 | 2.92 ± 0.069
17 | RPDGVHVINVGKTWEKL [RPS0A] | 3.33 ± 0.12 | 3.41 ± 0.15 | 3.4 ± 0.13 | 3.04 ± 0.081
18 | IMDELLSSIAERVRNFA [DIB1] | 1.9 ± 0.065 | 2.27 ± 0.086 | 2.06 ± 0.084 | 2.17 ± 0.082
19 | YDSRTTIFSPEGRLYQV [PRE9] | 3.02 ± 0.1 | 3.31 ± 0.075 | 2.97 ± 0.078 | 3.09 ± 0.063
20 | KTTNTTPSFSFGAKSDE [YJL041W/NSP1] | 3.27 ± 0.079 | 3.24 ± 0.082 | 3.09 ± 0.035 | 3.18 ± 0.048
21 | GNPYIELNQDRLGGDDL [SNF5] | 3.05 ± 0.092 | 3.24 ± 0.098 | 3.03 ± 0.11 | 3.27 ± 0.049
22 | GEVVYLRKQKDSSTTSS [ITC1] | 1.79 ± 0.073 | 1.73 ± 0.08 | 1.48 ± 0.14 | 2.23 ± 0.081
23 | KTAQTLDENLNSLSSNL [YJL041W/NSP1] | 2.48 ± 0.04 | 2.29 ± 0.055 | 2.23 ± 0.061 | 2.46 ± 0.037
24 | LDDTTIPVGLMAQENSM [MCD1] | 1.5 ± 0.071 | 1.84 ± 0.093 | 1.56 ± 0.17 | 1.87 ± 0.078
25 | IKVEGAVGNLGNAVTVT [RPL22A] | 3.39 ± 0.14 | 3.18 ± 0.13 | 3.15 ± 0.083 | 3.06 ± 0.079
26 | RNEKRMFLEFQSTQTDL [SMC2] | 2.53 ± 0.19 | 2.48 ± 0.19 | 3.24 ± 0.14 | 2.61 ± 0.12
27 | SQRAQVVTMSVKSVNDP [RPC37] | 2.17 ± 0.073 | 2.4 ± 0.11 | 1.89 ± 0.08 | 1.97 ± 0.1

Row | Sequence | protein stability index (doa10∆) | protein stability index (pdr5∆) | protein stability index (san1∆) | protein stability index (ubr1∆)
28 | NEDLEDGHYIEENSQGN [REC8] | – | 3.37 ± 0.27 | – | –
29 | ATASAIAATAVASLVLA [RPL4A] | 2.37 ± 0.1 | 1.78 ± 0.071 | 1.91 ± 0.17 | 1.88 ± 0.082
30 | NDPNAAVNMTQNIMTLP [MED6] | 2.97 ± 0.14 | 2.95 ± 0.089 | 2.71 ± 0.08 | 3.11 ± 0.059
31 | ARRLKNRAARDRRAQRV [RPL19A] | 2.97 ± 0.14 | 3.43 ± 0.1 | 2.57 ± 0.13 | 3.17 ± 0.062
32 | LSNPSNQNICTSVTRRS [GRR1] | 2.42 ± 0.083 | 2.49 ± 0.052 | 2.62 ± 0.055 | 2.53 ± 0.039
33 | APIKKIIERYIKSKADA [PRP8] | 3.11 ± 0.12 | 3.24 ± 0.12 | 2.98 ± 0.079 | 3.13 ± 0.11
34 | KFILSGFIFTSMILEAI [RRI2] | 1.58 ± 0.06 | 1.2 ± 0.035 | 1.17 ± 0.11 | 1.11 ± 0.048
35 | RLLSALGPRGVSITPGK [SRP21] | 2.97 ± 0.078 | 3.04 ± 0.074 | 3.29 ± 0.078 | 2.93 ± 0.054
36 | FKLVSTPSSNSNSSELE [MED1] | 1.85 ± 0.058 | 2.29 ± 0.062 | 2.35 ± 0.057 | 2.84 ± 0.046
37 | RYADAGNIDTKNNILGS [RRP43] | 3.31 ± 0.062 | 3.06 ± 0.05 | 3.12 ± 0.039 | 3.04 ± 0.049
38 | KYAQDGAGIERELARIK [RPL3] | 3.54 ± 0.2 | 3.46 ± 0.16 | – | –
39 | AMEFIFGNSLICEDPET [SMC2] | 2.38 ± 0.073 | 2.25 ± 0.054 | 1.37 ± 0.094 | 1.88 ± 0.049
40 | VHESLVTQSNILSQQFD [SRB8] | 2.71 ± 0.07 | 3.09 ± 0.071 | 2.78 ± 0.054 | 3.02 ± 0.052
41 | VAIAETDSWESFFVSVR [FAS1] | – | 3.05 ± 0.3 | – | –
42 | NTSLNINGWKFESLPLK [SWP82] | 2.88 ± 0.055 | 2.96 ± 0.05 | 2.96 ± 0.053 | 3.06 ± 0.043
43 | AMNDKDLTMGQVGERIK [RPO21] | 3.31 ± 0.17 | 3.26 ± 0.14 | 2.82 ± 0.13 | 3.08 ± 0.099
44 | RLGSKKLVEIIWNDVVY [YJL039C/NUP192] | 3.4 ± 0.17 | 3.43 ± 0.12 | 3.46 ± 0.082 | 3.35 ± 0.08
45 | HYPEIEDLVDRIENPEK [RPP0] | 2.84 ± 0.1 | 3.17 ± 0.081 | 2.97 ± 0.12 | 3.05 ± 0.072
46 | QHLRNEHGMNAPSVPEF [SNF2] | 2.86 ± 0.1 | 3.56 ± 0.13 | 2.96 ± 0.08 | 3.09 ± 0.061
47 | NAISNTQDDFTTSVDVM [SRP54] | 2.79 ± 0.076 | 2.76 ± 0.061 | 3.1 ± 0.064 | 3.2 ± 0.045
48 | PTIRSNAVLGLGDMAVC [YCS4] | 1.61 ± 0.088 | 1.64 ± 0.069 | 1.67 ± 0.13 | 1.71 ± 0.099
49 | GIRAPKGALMYGPPGTG [RPT5] | 2.86 ± 0.14 | – | – | 1.32 ± 0.11
50 | TSEEQTKFLAKNGVIPE [SWP82] | 3.71 ± 0.26 | 3.6 ± 0.23 | – | 3.3 ± 0.098
51 | PNLLFSMCGFEVRILPR [PRP8] | 2.41 ± 0.051 | 1.9 ± 0.047 | 2.25 ± 0.055 | 2.27 ± 0.046
52 | LNRIKKYLLTQRVFKPV [PRP8] | 2.22 ± 0.075 | 2.25 ± 0.072 | 2.33 ± 0.096 | 2.48 ± 0.069
53 | SVRSLQKRIENGGNSVI [SRP68] | 1.7 ± 0.085 | 1.82 ± 0.064 | 2.29 ± 0.096 | 1.85 ± 0.1
54 | VSSRVRGYTCQFVDMVL [FAS1] | 1.76 ± 0.09 | 1.94 ± 0.07 | 1.44 ± 0.094 | 2.02 ± 0.081
